Measured values from the DeepSol protein solubility set.

test: soluble on expression in E. coli; label from the status in PepcDB or PDB records

Sequence | soluble on expression in E. coli
MKFELDTTDGRARRGRLVFDRGVVETPCFMPVGTYGTVKGMTPEEVEATGAQIILGNTFHLWLRPGQEIMKLHGDLHDFMQWKGPILTDSGGFQVFSLGDIRKITEQGVHFRNPINGDPIFLDPEKSMEIQYDLGSDIVMIFDECTPYPADWDYAKRSMEMSLRWAKRSRERFDSLGNKNALFGIIQGSVYEDLRDISVKGLVDIGFDGYAVGGLAVGEPKADMHRILEHVCPQIPADKPRYLMGVGKPEDLVEGVRRGIDMFDCVMPTRNARNGHLFVTDGVVKIRNAKYKSDTGPLDPECDCYTCRNYSRAYLHHLDRCNEILGARLNTIHNLRYYQRLMAGLRKAIEEGKLESFVTDFYQRQGREVPPLNVD | soluble
MKQTTINHSVELVGIGLHKGVPVKLVLEPLGENQGIVFYRSDLGVNLPLKPENIVDTKMATVLGKDNARISTIEHLLSAVHAYGIDNLKISVDNEEIPIMDGSALTYCMLLDEAGIKELDAPKKVMEIKQAVEIRESDKFVKIEPDSQLSLNFTIDFNHPVIAKQAHHFVFSKTAYKEQVAKARTFGFLQEVNYLRSIGLAKGGSLNNCIVLDENSILNKEGLRCEKEFVCHKILDAMGDLMVLGMPVMGKYTSFSGSHKLNSMLVKAILADAKNYEVLIAADPAKEFALQKAFALEHHHHHH | not soluble
MQADPAIRRFAKKRNKRVDRMILDSNYMHTSIDRYFPNESKRRGRPDIIYLLLEMTQESILNHKNQLRTYVHTRNNQVIRISPITRMPKSYNRFIGLFEDLFEKRIITNNGKELLSMEESSLGDLINSIRRDRTILLHPKGEMRKPSEFISNANILIVIGGFSEGDFISDTSFINERYAIFDQELTIWSVANEMVANYERAVGLTLEHHHHHH | soluble
MKIFLENLYHSDCYFLPIRDNQQVLVGVELITHFSSEDGTVRIPTSRVIAQLTEEQHWQLFSEQLELLKSCQHFFIQHKLFAWLNLTPQVATLLLERDNYAGELLKYPFIELLINENYPHLNEGKDNRGLLSLSQVYPLVLGNLGAGNSTMKAVFDGLFTRVMLDKSFIQQQITHRSFEPFIRAIQAQISPCCNCIIAGGIDTAEILAQITPFDFHALQGCLWPAVPINQITTLVQR | not soluble
GMTTSEHIAALTALVETYVMAMTRGDRPALERIFFGKASEVGHYEGELLWNSRDAFIAMCEDAADAETDPFWAISSVSVQGDIAMLHVENDWAGMRFDDFLTVLLHEGSWRIVSKVYRIR | soluble
MGSDKIHHHHHHMSRRDEGNMVADAGALLPNGDTVSTDAIKVPAGRVNRLMRLGGLAAGIAGGATLQAIAGIARGTRPDARSLLASPANVRRVADELARMRGAAMKIGQLLSMDAGEVLPPELAQILARLRDRAHIMPPSQLGQVLEREWGAGWRRQFKRFDVRPIAAASIGQVHRARTRDGRDLAIKVQYPGVARSIDSDVSNVGALLRLSGLLPKGFDISPYLAEARRQLHEETDYAREGAQLKRFAEWLTDSDTFVVPQYHADLSTAQILAMSYVAGQPIETLADADAATRNRVMTALVDLSLREVFHFGAMQSDPNFANYRYVPQSGRIVLLDFGAARDLHPLVTKSYADMLRSGLVGDDHGIWDAARALGLISDGPDIGSSEARLLALIAGVFEVLRAQEFDFADQTLIRALNEEGMALAQSGYHPPSLPMDVLYLQRKFGGLFLLGNRLRTKLCLRDIIDPYL | not soluble
MGSDKIHHHHHHMLANGDVPILQLQHIIKRFGNQVAVNDVSLNIHRGEIVALLGENGAGKSTLIKILAGLYSRDEGEIYFHQQKIQSAQSLTNKNKQPIAFIHQDLGLVEWMTIAENMAFVMGFPRRFGLIDWKKINQQAQEALDFVGIHLSAQTRVFDLSRTEKALLTIARAIAVNAEILVLDEPTASLPASDVEHLFKVLNRLRKQGVGMIYVTHRLDEVIRLSDRILVMRDGYSVAEGSTKDYDVKALVKAIVGEETREKQREPLPKNTPEVVRLNEVVVGDTGPVSFSLHQGEMIALAGLRGAGQEEIGRLLFGLRKLESGDISLNECAYHAESPCEAIYKGVALVAGDRIREGLVMSMTTMENLFINPILSGHFPLKNYASKKERSECWYQFQLFDIRPKNLFIEVSSLSGGNQQKIVLARWMQLNTPVLILEDPTAGVDVGARAEIYDLLNQALKKGVAIIVISNDFEEIAHLCNRALVFNRGDIVGELFNEQVTFANLLALASDASATIN | not soluble
MKQRGGFLGGQLLIAMPGMNDKRFIRSVIYICAHSDAGAMGIILNQLHHIGFPELLLHLGVINSGQKKDLSEPIKKFPVRYGGPVDPSRGFVLHSDDYACEETVLVADKICFTATIDILKAISCEKGPQHALIALGYAGWKAGQLEAEISTNGWLISSTSPSFLFESDLNRKYDESLIRMGINPTYLVSEMGHA | not soluble
